Assay [1] addresses T1, scCD94/NKG2A-mFc, Fc-fusion protein of murine IgG1 fused at the C-terminus with a single-chain construct of … (mouse; human, UniProt Q13241 32-179). As to the kind of experiment: SPR Biacore T100, sc-NKG2A-CD94-mFc immobilized, antibody 1.25-10 nM.
Assay [2] deals with T1, scCD94/NKG2A-mFc, Fc-fusion protein of …. As to the kind of experiment: SPR Biacore T100, sc-NKG2A-CD94-mFc immobilized.
Assay [3] has as its target T2, human CD94/NKG2A receptor on cells (Ba/F3 cells over-expressing CD94/NKG2A; NKL cells) (human, UniProt Q13241 1-179).
T2 construct: whole, on cells; also called Ba/F3-CD94/NKG2A
As to the kind of experiment: flow cytometry on Ba/F3-CD94/NKG2A cells.

For assay [4], the target named is T1, scCD94/NKG2A-mFc, Fc-fusion protein of …. As to the kind of experiment: SPR Biacore T100, sc-NKG2A-CD94-mFc immobilized, binding level (RU) divided by that of chimZ199.

The values below come from patent US20110052606A1 (Novo Nordisk, published 2011).

T1 sequence (Q13241 other isoform, or with tags, fused parts or gaps): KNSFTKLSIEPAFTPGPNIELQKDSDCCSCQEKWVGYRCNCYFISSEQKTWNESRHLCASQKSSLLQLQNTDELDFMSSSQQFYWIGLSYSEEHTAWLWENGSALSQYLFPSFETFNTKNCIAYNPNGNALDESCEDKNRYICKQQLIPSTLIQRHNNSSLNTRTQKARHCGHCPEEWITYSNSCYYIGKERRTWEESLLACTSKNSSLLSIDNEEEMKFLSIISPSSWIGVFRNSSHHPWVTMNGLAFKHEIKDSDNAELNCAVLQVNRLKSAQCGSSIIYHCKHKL
T2 sequence (chain, as listed by the source, chain 1 of 2): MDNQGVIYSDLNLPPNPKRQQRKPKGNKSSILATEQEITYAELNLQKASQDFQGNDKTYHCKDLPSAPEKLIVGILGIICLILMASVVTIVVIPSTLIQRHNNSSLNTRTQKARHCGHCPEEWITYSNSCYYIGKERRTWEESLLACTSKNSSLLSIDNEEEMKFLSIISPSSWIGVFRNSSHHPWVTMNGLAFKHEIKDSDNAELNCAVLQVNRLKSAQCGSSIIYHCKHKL
T2 sequence (Q13241 whole entry, chain 2 of 2): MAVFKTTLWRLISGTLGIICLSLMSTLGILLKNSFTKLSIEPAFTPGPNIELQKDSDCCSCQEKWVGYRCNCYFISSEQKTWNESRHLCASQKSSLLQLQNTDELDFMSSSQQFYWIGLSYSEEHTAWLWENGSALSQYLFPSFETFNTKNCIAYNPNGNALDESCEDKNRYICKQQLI

B1: HumZ199 (LC: L46P) (antibody, name in Kabat numbering, V domains shown)
VH: EVQLVESGGGLVKPGGSLRLSCAASGFTFSSYAMSWVRQAPGKGLEWVSEISSGGSYTYYADSVKGRFTISRDNAKNSLYLQMNSLRAEDTAVYYCARHGDYPRFFDVWGQGTTVTVSS
VL: EIVLTQSPATLSLSPGERATLSCSASSSVSSYIYWYQQKPGQAPRPLIYLTSNLASGIPARFSGSGSGTDFTLTISSLEPEDFAVYYCQQWSGNPYTFGQGTKLEIK
notes: also called huZ199(LC:L46P); humZ199 with single back mutation L46P in the light chain
B1: in assay [1], the Kd amounted to 0.072 nM, the koff was 0.000122 s⁻¹ and the kon is 1.7e+06 M⁻¹ s⁻¹. Moreover, the “fold difference of affinity against chimeric Z199” value in assay [2] was found to be 2.7 fold.

B2: chimeric Z199 with a human IgG4(S241P) portion (antibody, V domains shown)
VH: EVQLVESGGGLVKPGGSLKLSCAASGFTFSSYAMSWVRQSPEKRLEWVAEISSGGSYTYYPDTVTGRFTISRDNAKNTLYLEISSLRSEDTAMYYCTRHGDYPRFFDVWGAGTTVTVSS
VL: QIVLTQSPALMSASPGEKVTMTCSASSSVSYIYWYQQKPRSSPKPWIYLTSNLASGVPARFSGSGSGTSYSLTISSMEAEDAATYYCQQWSGNPYTFGGGTKLEIKR
notes: also called chimZ199; ChimZ199
Turning to B2, in assay [1], the Kd came to 0.0243 nM, the koff turned out to be 4.17e-05 s⁻¹ and the kon amounted to 1.72e+06 M⁻¹ s⁻¹.

B3: murine anti-NKG2A antibody Z199 (antibody, V domains shown)
VH: EVQLVESGGGLVKPGGSLKLSCAASGFTFSSYAMSWVRQSPEKRLEWVAEISSGGSYTYYPDTVTGRFTISRDNAKNTLYLEISSLRSEDTAMYYCTRHGDYPRFFDVWGAGTTVTVSS
VL: QIVLTQSPALMSASPGEKVTMTCSASSSVSYIYWYQQKPRSSPKPWIYLTSNLASGVPARFSGSGSGTSYSLTISSMEAEDAATYYCQQWSGNPYTFGGGTKLEIKR
notes: Mouse monoclonal antibody (Beckman Coulter IM2750) and its recombinant form recZ199 made in HEK293 cells; also called recZ199; Z199 (rec)
Turning to B3, the binding result in assay [3] is “binds”.

B4: chimZ199 heavy-chain alanine mutant Y98A (antibody, human IgG4, name in Kabat numbering, V domains shown)
VH: EVQLVESGGGLVKPGGSLKLSCAASGFTFSSYAMSWVRQSPEKRLEWVAEISSGGSYTYYPDTVTGRFTISRDNAKNTLYLEISSLRSEDTAMYYCTRHGDAPRFFDVWGAGTTVTVSS
VL: QIVLTQSPALMSASPGEKVTMTCSASSSVSYIYWYQQKPRSSPKPWIYLTSNLASGVPARFSGSGSGTSYSLTISSMEAEDAATYYCQQWSGNPYTFGGGTKLEIKR
notes: Ala-scan mutant made on chimZ199 (human IgG4 constant domains); Kabat numbering; also called HC: Y98A
On to B4, for which the “relative binding against chimZ199” value in assay [4] was approximately 40%.

B5: chimZ199 light-chain alanine mutant Y32A (antibody, human IgG4, name in Kabat numbering, V domains shown)
VH: EVQLVESGGGLVKPGGSLKLSCAASGFTFSSYAMSWVRQSPEKRLEWVAEISSGGSYTYYPDTVTGRFTISRDNAKNTLYLEISSLRSEDTAMYYCTRHGDYPRFFDVWGAGTTVTVSS
VL: QIVLTQSPALMSASPGEKVTMTCSASSSVSAIYWYQQKPRSSPKPWIYLTSNLASGVPARFSGSGSGTSYSLTISSMEAEDAATYYCQQWSGNPYTFGGGTKLEIKR
notes: Ala-scan mutant made on chimZ199 (human IgG4 constant domains); also called LC: Y32A
In the case of B5, the “relative binding against chimZ199” value in assay [4] is approximately 40%.

B6: chimZ199 light-chain alanine mutant P95A (antibody, human IgG4, name in Kabat numbering, V domains shown)
VH: EVQLVESGGGLVKPGGSLKLSCAASGFTFSSYAMSWVRQSPEKRLEWVAEISSGGSYTYYPDTVTGRFTISRDNAKNTLYLEISSLRSEDTAMYYCTRHGDYPRFFDVWGAGTTVTVSS
VL: QIVLTQSPALMSASPGEKVTMTCSASSSVSYIYWYQQKPRSSPKPWIYLTSNLASGVPARFSGSGSGTSYSLTISSMEAEDAATYYCQQWSGNAYTFGGGTKLEIKR
notes: Ala-scan mutant made on chimZ199 (human IgG4 constant domains); also called LC: P95A
Turning to B6, the “relative binding against chimZ199” value in assay [4] is approximately 40%.

B7: chimZ199 light-chain alanine mutant L50A (antibody, human IgG4, name in Kabat numbering, V domains shown)
VH: EVQLVESGGGLVKPGGSLKLSCAASGFTFSSYAMSWVRQSPEKRLEWVAEISSGGSYTYYPDTVTGRFTISRDNAKNTLYLEISSLRSEDTAMYYCTRHGDYPRFFDVWGAGTTVTVSS
VL: QIVLTQSPALMSASPGEKVTMTCSASSSVSYIYWYQQKPRSSPKPWIYATSNLASGVPARFSGSGSGTSYSLTISSMEAEDAATYYCQQWSGNPYTFGGGTKLEIKR
notes: Ala-scan mutant made on chimZ199 (human IgG4 constant domains); also called LC: L50A
On to B7, for which the “relative binding against chimZ199” value in assay [4] is approximately 40%.

B8: chimZ199 heavy-chain alanine mutant P99A (antibody, human IgG4, name in Kabat numbering, V domains shown)
VH: EVQLVESGGGLVKPGGSLKLSCAASGFTFSSYAMSWVRQSPEKRLEWVAEISSGGSYTYYPDTVTGRFTISRDNAKNTLYLEISSLRSEDTAMYYCTRHGDYARFFDVWGAGTTVTVSS
VL: QIVLTQSPALMSASPGEKVTMTCSASSSVSYIYWYQQKPRSSPKPWIYLTSNLASGVPARFSGSGSGTSYSLTISSMEAEDAATYYCQQWSGNPYTFGGGTKLEIKR
notes: Ala-scan mutant made on chimZ199 (human IgG4 constant domains); Kabat numbering; also called HC: P99A
With B8, the “relative binding against chimZ199” value in assay [4] was approximately 40%.

B9: chimZ199 heavy-chain alanine mutant Y56A (antibody, human IgG4, name in Kabat numbering, V domains shown)
VH: EVQLVESGGGLVKPGGSLKLSCAASGFTFSSYAMSWVRQSPEKRLEWVAEISSGGSATYYPDTVTGRFTISRDNAKNTLYLEISSLRSEDTAMYYCTRHGDYPRFFDVWGAGTTVTVSS
VL: QIVLTQSPALMSASPGEKVTMTCSASSSVSYIYWYQQKPRSSPKPWIYLTSNLASGVPARFSGSGSGTSYSLTISSMEAEDAATYYCQQWSGNPYTFGGGTKLEIKR
notes: Ala-scan mutant made on chimZ199 (human IgG4 constant domains); Kabat numbering; also called HC: Y56A
For B9, the “relative binding against chimZ199” value in assay [4] was approximately 40%.
